Measured values published in the DeepSol protein solubility set.

Assay: soluble on expression in E. coli; label from the status in PepcDB or PDB records

With “SGHPPLEFSDCYLDSPDFRERLKCYEQELERTNKFIKDVIKDGNALISAMRNYSSAVQKFSQTLQSFQFDFIGDTLTDDEINIAESFKEFAELLNEVENERMMMVHNASDLLIKPLENFRKEQIGFTKERKKKFEKDGERFYSLLDRHLHLSSKKKESQLQEADLQVDKERHNFFESSLDYVYQIQEVQESKKFNIVEPVLAFLHSLFISNSLTVELTQDFLPYKQQLQLSLQNTRNHFSSTREEMEELKKRMKEAPQTCKLPGQPTIEGYLYTQEKCVWGHRGIHWVSISQELLPLVGCEFWAPLLFIDP” as the sequence, how does the “soluble on expression in E. coli” value read?
The value was “soluble”.

For “MGHHHHHHGGHMSLIAITGATGQLGHYVIESLMKTVPASQIVAIVRNPAKAQALAAQGITVRQADYGDEAALTSALQGVEKLLLISSSEVGQRAPQHRNVINAAKAAGVKFIAYTSLLHADTSPLGLADEHIETEKMLADSGIVYTLLRNGWYSENYLASAPAALEHGVFIGAAGDGKIASATRADYAAAAARVISEAGHEGKVYELAGDSAWTLTQLAAELTKQSGKQVTYQNLSEADFAAALKSVGLPDGLADMLADSDVGASKGGLFDDSKTLSKLIGHPTTTLAESVSHLFNVNNEGGS”, which “soluble on expression in E. coli” value is on record?
The value was “soluble”.

For “MAHHHHHHMEAKLSSALRTCDKCRTYADLCRTFEAKVSPIVEQALQSPLVKAPRDHTTPDECSPRVAELREALCTRLGADKATPAEDDVWFLIYRTVSNFVERQQRKRSRDQDGTSLSTLVTNCFVLLCTRTLPQLDHMKLRWGFLKKERAALESSDAYVHSNASERRKLQLNATSVLSVFSERAHKHSFTFVWMLCVEKAGEAALHVHLLHRVGSVVLPYLTNPLVLADYLTGCFSSGGIISILSLQGLFLLMLDHGLEYPNYYEQLYSLLTPDVFASRYRYELFRLLDLSMTSLRVPSYIAASVIKRVAQVSLMAPAPTLYFSLPFLRKVLQSHPNCLALIHRSSREAVIPDDMADQDTDTVTAQSAKAQAMRDTAALFDGRDPFDDRAKLLETHALSSTLWELTALERHFMPVVPLMVSAFSSTAEDKTPLRYEKSYGRLFTAEVTRAIDCHNLPTIAYEAPSEADPTDLLSL”, which “soluble on expression in E. coli” value is on record?
Its value is “soluble”.

With “MGSDKIHHHHHHMDSAYVFDSEQATKLLMKNYELVKTSGVSFIDKRIRFLIARLFAGNNEVVDPEEFSEINKEIKRQLGMFTALNGNVRASLVGLLMANDNASRESVQQVIANYNTLIQAGFQRTEYTYFAAYLLLESENPKKTARKAKTIHQLFKKDHPFLTKSEDVTTAVFLANLPEENTTKLAEITEYYFQEFAAKGFRKNDSLQFLATTGTLLYGEKDSKFIRRVDNIVEELRQKGIKVKPLHYSSIGILAFVMDARKIDSGLVNLIDELQQQPGLRFGREFVTALAISLYTEKQSGQMSKEQLEGLMVNVHILIAMEQAAAVSAAAAASAAAASS” as the sequence, how does the “soluble on expression in E. coli” value read?
Its value is “not soluble”.

Which “soluble on expression in E. coli” value does the source give for “HMTMEQFLTSLDMIRSGCAPKFKLKTEDLDRLRVGDFNFPPSQDLMCYTKCVALMAGTVNKKGEFNAPKALAQLPHLVPPEMMEMSRKSVEACRDTHKQFKESCERVYQTAKCFSENADGQFMWP” here?
The value was “soluble”.

Which “soluble on expression in E. coli” value does the source give for “MAHHHHHHMQSSALRPSSLLRAYHYVHPKTGRPIRQYRKYGDPRFINNEVALIKGLFALITTDFGMVTQSQLENARLAILRRMPRGSFALTMHTDYEEFPVVQKSPESRMGAGKSNIHHFAYKFTTGVPLFEITALSSRRLNQAEAEGIFLAGRSFIPLQTAVVPRGRVDEYHVFK” here?
The value was “soluble”.

With “MRKPILAALTLAGLGLAQEFITIGSGSTTGVYFPVATGIAKLVNDANVGIRANARSTGGSVANINAINAGEFEMALAQNDIAYYAYQGCCIPAFEGKPVKTIRALAALYPEVVHVVARKDAGIRTVADLKGKRVVVGDVGSGTEQNARQILEAYGLTFDDLGQAIRVSASQGIQLMQDKRADALFYTVGLGASAIQQLALTTPIALVAVDLNRIQAIAKKYPFYVGFNIPGGTYKGVDVTTPTVAVQAMLIASERLSEETVYKFMKAVFGNLEAFKKIHPNLERFFGLEKAVKGLPIPLHPGAERFYKEAGVLK” as the sequence, how does the “soluble on expression in E. coli” value read?
The value was “soluble”.

Which “soluble on expression in E. coli” value does the source give for “AHHHHHHGSYILQKNKGVIRVKDIAKMMRVKPPTVVEALKKLRDKGFVKYEEHEHILLTEKGLEVAKKTYSKHQLLTEFFINILGIPPEIAERDACQFEHYVSEVTVHRIREFISYIQQECPYALKQFLKKVREKDQAVAK” here?
Its value is “not soluble”.

With “MGSDKIHHHHHHMFSIAIQQQQYKTYILSDETTGSQLEVVPERGGIITRWRVKGEEILYLDAERFTHPDLSVRGGVPILFPICGNLPDNSYTLNGQQYTLKQHGFARDLPWEVVEQTTKDTAALTLVLRSNEQTKAVYPFDFQLVFTYVLQGNTLEIRQEYQNLSSTQLPFSAGFHPYFLTGDKNQLEFDIPSQEYQDQQTKEVHPFNGNFDFNRDEMDFAFGHITSQSASVIDRNRQFKLTLDADDIFSMLVFWTLKGKEFYCLEPWSAPRNSLNTGEKLTVLEPGTSYKASVRLSASFF” as the sequence, how does the “soluble on expression in E. coli” value read?
The value was “not soluble”.

For “MPLSWPPEQFAFALEQMPLTENNRRILQAFLDAPEQTLTAHSLAAAANVAGGWSAANLRIGELSRKFAPVLGSLPDAGDGDPHWWRYIASGRWDGGRFYWTLRPQLKDALLTLGWQSSESLDNEAEGVSAEEARTFVEGATRQIFVNAYERNAGARAACIAHFGTVCRVCETDLVAIYGEVARGYIQVHHLRSLAEVGRQYEVNPLTDLIPVCPNCHAMLHQRRPAYTPEELRAMLGRGQHLEHHHHHH”, which “soluble on expression in E. coli” value is on record?
The value was “not soluble”.

With “MDWDLITERNIQLFIQLAGLAERPLATNMFWRQGQYETYLNYHNGRIHLCQILKQTFLDEELLFKALANWKPAAFQGIPQRLFLLRDGLAMSCSPPLSSSAELWLRLHHRQIKFLESQCVHG” as the sequence, how does the “soluble on expression in E. coli” value read?
Its value is “not soluble”.

For “MIGPENCNSVSEPIAYVIILAGGRSSRMGYDKAQVMVDGRRLIDLCLESIASVHAHPIVVSGQDLQLTAAVTQVMEEPAFGGPVAGIAAGMRCCDTKAGLIGVIAVDAPRSGNYLNQLRRVVLTHPEVGVAHAVVEGYDQPLLAVWRYEALTQALHALGSPRNVAAKRLLRSATTPVIAVPVDSSARDYDTVAELSALGRVRLRLEHHHHHH”, which “soluble on expression in E. coli” value is on record?
Its value is “not soluble”.

For “TSRKLNDAANERLAAQQDLRNAATLIVRDARMAGGFGCFNMSEHPATDVIPDTTQQNSPFSLKRNGIDKLIPIAESSNINYQNFFQVGSALIFQYGIDD”, which “soluble on expression in E. coli” value is on record?
The value was “not soluble”.

With “MMSSNQQPVVLGKLGSCHGIKGWLKITAYTDSVEGIFDYSPWLIKENGEWREVKVIQWRYQGKAVVAELEGVTTRERAQMLTNCEIGILPQQMNALPEDEFYWRDLIGCEVINTTGYNMGIVDQIVETGSNDVLLVKANAKDSFGKVERMVPFVPGQFILKVDVQGKQILVDWDPDFLEHHHHHH” as the sequence, how does the “soluble on expression in E. coli” value read?
The value was “soluble”.

Which “soluble on expression in E. coli” value does the source give for “MNVVNNSRDVIYSSGIVFGTSGARGLVKDFTPQVCAAFTVSFVAVMQEHFSFDTVALAIDNRPSSYGMAQACAAALADKGVNCIFYGVVPTPALAFQSMSDNMPAIMVTGSHIPFERNGLKFYRPDGEITKHDEAAILSVEDTCSHLELKELIVSEMAAVNYISRYTSLFSTPFLKNKRIGIYEHSSAGRDLYKPLFIALGAEVVSLGRSDNFVPIDTEAVSKEDREKARSWAKEFDLDAIFSTDGDGDRPLIADEAGEWLRGDILGLLCSLALDAEAVAIPVSCNSIISSGRFFKHVKLTKIGSPYVIEAFNELSRSYSRIVGFEANGGFLLGSDICINEQNLHALPTRDAVLPAIMLLYKSRNTSISALVNELPTRYTHSDRLQGITTDKSQSLISMGRENLSNLLSYIGLENEGAISTDMTDGMRITLRDGCIVHLRASGNAPELRCYAEANLLNRAQDLVNTTLANIKKRCLL” here?
Its value is “not soluble”.

With “MGSDKIHHHHHHMLLDYDVALEDDFQQFIKQIPAPVRALLDSADPVARHQRQAVYTLFGIPGRPATMTPLVEALAMVSTLDTPSFAPTPTINDLALSKAHAYASQYLLQQFIRTVSHTTMLPPANRHELLTAAQSLPLANLNRLRLNFNQRERIADFLKDTKDRPAKLTSLSGYLATSLAGLDPAICGLARAIGESVGIVLTILTDVQVTRQIADFRERLLMGNYPLPLLFGFENDPGYFYDFFHQAHKPTADQFVATQQRVLMIGVAPALTMANELVDQARLDSQQLPTDLKKRVEQALTRLAAATAQPH” as the sequence, how does the “soluble on expression in E. coli” value read?
The value was “not soluble”.

For “MAHHHHHHMSVVISTSLGSLLINLRFVDCPKASFNFLALCASSYYDGCRFHRLVPETFVLTGDPTGTGKGGESVFVHHQDIKQRYFEDEGMGNALHDRRGVVSMAHKGNKPDTNASQFFILFKPCPSLDSKHTAFGVVDFGWNDGESERTLKRVEELEADGSYNVLDVEARILSTTVLYNPFAEGHIKLNV”, which “soluble on expression in E. coli” value is on record?
Its value is “not soluble”.

Which “soluble on expression in E. coli” value does the source give for “MGHHHHHHSHMANCEGTDGDGTGCNGWFFVQAIVDKQTGDTVSEDEDENATDTGSDMVDFIDDATDICIQAERETAQVLLNMQQAQRDAQTVRALKRKYTDSIESSPLAKSPLQELSIWKWKLTRR” here?
The value was “not soluble”.

Which “soluble on expression in E. coli” value does the source give for “MAILIELQDICVDFEQRRVLDNIRLTLTKGNITTLIGPNGAGKSTLVKVILGLQSLSSGKIIRQSGIRIGYVPQKLKLNDTLPLTVNRFLKLAGRFSTQELSEALRLVGGEHLQSSDMHKLSGGETQRVLLARALLQRPDLLVLDEPAQGVDVQGQIDLYDLIHTLRNRFGCAVLMVSHDLHLVMAKTDEVICLQHHVCCSGSPESIAKHPSYLAMFGHRSRDTLAFYQHHHEHHHHDLSGLPVKGKASVCSHHSHGHHKHD” here?
Its value is “not soluble”.

Which “soluble on expression in E. coli” value does the source give for “MGKMNHQDELPLAKVSEVDEAKRQWLQGMRHPVDTVTEPEPAEILAEFIRQHSAAGQLVARAVFLSPPYLVAEEELSVLLESIKQNGDYADIACLTGSKDDYYYSTQAMSENYAAMSLQVVEQDICRAIAHAVRFECQTYPRPYKVAMLMQAPYYFQEAQIEAAIAAMDVAPEYADIRQVESSTAVLYLFSERFMTYGKAYGLCEWFEVEQFQNP” here?
The value was “soluble”.

With “LSQEETELELLRQFDLAWQYGPCTGITRLQRWHRAEQMGLKPPVEVYQVLKTHPEDSRFQCSLWHLYPL” as the sequence, how does the “soluble on expression in E. coli” value read?
The value was “not soluble”.

Which “soluble on expression in E. coli” value does the source give for “MGSDKIHHHHHHMPTIHFVDGEKGGVGKSLFARTMIQYCLDKRIPFVPVETDRSNPDVAGVYKEICKYAVFSENERQANKADRIFEWAIERPVIVNLAAQSHRAVQGWIESNQLLELGSSQGVMFCKWFISTGGYDSINLFTQSVNTYGEKIPHILVRNLGLCDDWEHLESDSNFQNIVNKYQIKVIDFPKLAYRERNIIDQNRLTFAEAREYKEFGIIGKQRVVNFLKLAYGAFEKVGIWYEKVE” here?
The value was “not soluble”.

For “MMGSAYWEKLVPQINPPKVPSAVEGLGIPASVVENLVLKHLAAYPKCDLVELTQRLCVVSNIVELALAQLRKRSWVEVYQPASDKLSHSYSNVRYSLTEFGLAEADIAYRKDPYIGPVPVSLEDYWTVVEGQDLRKNPIMRADVERALSDVFGSEHLIPVLGPAINSGRAMLLYGHAGTGKSYVAAR”, which “soluble on expression in E. coli” value is on record?
The value was “not soluble”.

With “EQAPQYVDETISLSAKTLFGFDKDSLRAEAQDNLKVLAQRLSRTNIQSVRVEGHTDFMGSDKYNQALSERRAYVVANNLVSNGVPVSRISAVGLGESQAQMTQVCEAEVAKLGAKVSKAKKREALIACIEPDRRVDVKIRSIVTRQVVPAHNHHQHLEHHHHHH” as the sequence, how does the “soluble on expression in E. coli” value read?
The value was “soluble”.
